In publication PMC11732463:

How the values were obtained:
[1] = in vitro microsomes, NBD-sphingosine + C16:0-CoA, HPLC; settings: glycan lost; control: WT CerS6 microsomes
[2] = in situ 17C-sphingosine labeling, LC/MS of 17C-Sph-C16:0-ceramide; settings: glycan lost; control: WT CerS6 in CerS6 KO HCT116
[3] = Western blot of microsomal fractions; settings: glycan lost; control: WT CerS6 microsomes

B1: ceramide synthase 6 (CerS6): N18A (protein)
parent chain: MAGILAWFWNERFWLPHNVTWADLKNTEEATFPQAEDLYLAFPLAFCIFMVRLIFERFVAKPCAIALNIQANGPQIAPPNAILEKVFTAITKHPDEKRLEGLSKQLDWDVRSIQRWFRQRRNQEKPSTLTRFCESMWRFSFYLYVFTYGVRFLKKTPWLWNTRHCWYNYPYQPLTTDLHYYYILELSFYWSLMFSQFTDIKRKDFGIMFLHHLVSIFLITFSYVNNMARVGTLVLCLHDSADALLEAAKMANYAKFQKMCDLLFVMFAVVFITTRLGIFPLWVLNTTLFESWEIVGPYPSWWVFNLLLLLVQGLNCFWSYLIVKIACKAVSRGKVSKDDRSDIESSSDEEDSEPPGKNPHTATTTNGTSGTNGYLLTGSCSMDD
enzymatic_activity [1]: decreases, N18A CerS6 activity is not statistically different than that of the LacZ microsomes
enzymatic_activity [2]: decreases, was approximately equal to that of LacZ expressing cells
expression_or_secretion [3]: increases
